Assays:
[1] = biological target: Tfl-bZip (GCN4 bZip segment 226-281 with Tfl-GCN4-p1 dimerization domain) four d-position Leu of the GCN4-p1 zipper replaced by 5,5,5-trifluoroleucine (UniProt P03069); assay: EMSA; conditions: densitometry of mobility shift
[2] = biological target: T1, Leu-bZip (GCN4 bZip segment, residues 226-281) (UniProt P03069 P03069:226-281); assay: EMSA; densitometry of mobility shift; conditions: protein: synthetic; tags: 56-residue peptide; chain copies: 2 (stated, dimer)
T1 sequence (P03069 226-281, one chain of several): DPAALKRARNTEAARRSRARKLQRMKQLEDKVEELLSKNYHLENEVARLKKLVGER

[3] = biological target: T1, Leu-bZip (GCN4 bZip segment, residues …); assay: EMSA; no protein-bound DNA seen; conditions: protein: synthetic; tags: 56-residue peptide; chain copies: 2 (stated, dimer)

Tfl-bZip (GCN4 bZip segment 226-281 with Tfl-GCN4-p1 dimerization domain) four d-position Leu of the GCN4-p1 zipper replaced by 5,5,5-trifluoroleucine, sequence (P03069 whole entry, the tested form may be a part): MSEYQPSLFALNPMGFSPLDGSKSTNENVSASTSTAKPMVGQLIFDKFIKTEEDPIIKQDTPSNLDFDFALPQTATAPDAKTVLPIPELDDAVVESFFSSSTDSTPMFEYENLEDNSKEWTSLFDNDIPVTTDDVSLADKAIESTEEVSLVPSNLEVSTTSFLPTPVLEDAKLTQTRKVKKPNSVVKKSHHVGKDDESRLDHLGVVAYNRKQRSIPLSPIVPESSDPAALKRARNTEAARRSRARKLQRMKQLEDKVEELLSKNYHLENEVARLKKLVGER

GTGGAGATGACTCATCTCCGG (double strand) [AP-1 site oligonucleotide]
Kd [1]: 12.5 nM

TGGAGATGACGTCATCTCCT (double strand) [CREB site oligonucleotide]
Kd ([1]; CD at 0 C also shows coil-to-helix transition on CREB DNA): 5.4 nM

B1: AP-1 site oligonucleotide (dsDNA)
DNA 1: GTGGAGATGACTCATCTCCGG
DNA 2: CCGGAGATGAGTCATCTCCAC
Kd [2]: 12.8 nM

B2: NON nonspecific oligonucleotide (dsDNA)
DNA 1: GATCCCAACACGTGTTGGGATC
DNA 2: GATCCCAACACGTGTTGGGATC
binding result [3]: no binding

Source: patent US20040214988, “Method for stabilization of proteins using non-natural amino acids” (California Institute of Technology, published 2004)
